For this data set, the target named is RecA (UniProt P0A7G6). The experiment in a line: pulldown.
Sequence of RecA (P0A7G6 2-353): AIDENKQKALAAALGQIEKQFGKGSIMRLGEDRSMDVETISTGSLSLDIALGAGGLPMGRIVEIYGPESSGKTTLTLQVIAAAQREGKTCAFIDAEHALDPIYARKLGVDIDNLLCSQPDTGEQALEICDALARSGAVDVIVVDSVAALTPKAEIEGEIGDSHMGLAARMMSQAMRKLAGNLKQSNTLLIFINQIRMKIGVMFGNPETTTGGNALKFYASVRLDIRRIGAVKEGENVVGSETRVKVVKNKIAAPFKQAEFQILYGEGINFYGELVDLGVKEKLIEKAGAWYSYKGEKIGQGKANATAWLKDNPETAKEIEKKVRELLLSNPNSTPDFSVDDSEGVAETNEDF

As to “lambda 1000-mer (6631-7630) nick-translated probe”, the activity (bio-14-dATP incorporated, capture of 32P lambda DNA target, 3.7% without RecA, ATPgammaS, Mg acetate) was 45.9%.
Regarding phiX174 RFI nick-translated probe, the activity (capture of 32P lambda target with heterologous non-biotinylated probe, 3.1% without RecA (background)) came out at 3.6%.
